Consider two substances from patent US20260151521A1.

The target in test [1] is human PD-L1 (full-length, expressed on cells) (human) (UniProt Q9NZQ7). Put plainly: immunoreactivity, Study 1: MC38-cOVA/eGFP-mPD-L1-/-hPD-L1Tg cells, cell-bound activity against standards.
For test [2] the target is unchanged. The test is described as follows: immunoreactivity on MC38/mPD-L1-/-/hPD-L1 cells.
The target is the same in test [3]. Put plainly: immunoreactivity, Study 3: MC38-cOVA/eGFP-mPD-L1-/-hPD-L1Tg cells, cell-bound activity against standards.
Test [4] has the same target. Put plainly: immunoreactivity, Study 3: 20 ng 89Zr antibody on 15x10^6 MC38-cOVA/eGFP-mPD-L1-/-hPD-L1Tg cells, gamma counter.
The target is the same in test [5]. The test is described as follows: immunoreactivity, Study 1: 20 ng 89Zr antibody on 15x10^6 MC38-cOVA/eGFP-mPD-L1-/-hPD-L1Tg cells, gamma counter.
Test [6] has the same target. Put plainly: immunoreactivity, Study 3: LOX-IMVI cells (endogenous human PD-L1), cell-bound activity against standards.
Test [7] shares this target. Put plainly: immunoreactivity, Study 3: 20 ng 89Zr antibody on 30x10^6 LOX-IMVI cells (endogenous human PD-L1), gamma counter.
Test [8] has the same target. Put plainly: flow cytometry, dose titration of staining on untreated MC38-cOVA/eGFP-mPD-L1-/-hPD-L1Tg cells. Background: A flow cytometer gives signals particle by particle.
The target is the same in test [9]. The test is described as follows: flow cytometry, dose titration of staining on LOX-IMVI cells treated overnight with 100 ng/mL hIFNγ.
The target is the same in test [10]. Put plainly: flow cytometry, dose titration of staining on untreated LOX-IMVI cells.
Test [11] has the same target. The test is described as follows: flow cytometry, dose titration on LOX-IMVI and MC38-cOVA/eGFP-mPD-L1-/-hPD-L1Tg cells with or without IFNgamma.
Test [12] shares this target. The test is described as follows: flow cytometry, dose titration of staining on MC38-cOVA/eGFP-mPD-L1-/-hPD-L1Tg cells treated overnight with 100 ng/mL mIFNγ.
The target is the same in test [13]. The test is described as follows: flow cytometry, ex vivo LOX-IMVI tumor cells (Tumor 1) ~3 weeks post implantation in nude mice, antibody at 20 ug/mL.
For test [14] the target is unchanged. Put plainly: flow cytometry, ex vivo LOX-IMVI tumor cells (Tumor 2) ~3 weeks post implantation in nude mice, antibody at 20 ug/mL.
Test [15] shares this target. The test is described as follows: flow cytometry, ex vivo MC38-cOVA/eGFP-mPD-L1-/-hPD-L1Tg tumor cells (Tumor 1) ~3 weeks post implantation in nude mice, antibody at 20 ug/mL.
The target is the same in test [16]. The test is described as follows: flow cytometry, ex vivo MC38-cOVA/eGFP-mPD-L1-/-hPD-L1Tg tumor cells (Tumor 2) ~3 weeks post implantation in nude mice, antibody at 20 ug/mL.

Chain of UniProt Q9NZQ7 (Q9NZQ7 19-290): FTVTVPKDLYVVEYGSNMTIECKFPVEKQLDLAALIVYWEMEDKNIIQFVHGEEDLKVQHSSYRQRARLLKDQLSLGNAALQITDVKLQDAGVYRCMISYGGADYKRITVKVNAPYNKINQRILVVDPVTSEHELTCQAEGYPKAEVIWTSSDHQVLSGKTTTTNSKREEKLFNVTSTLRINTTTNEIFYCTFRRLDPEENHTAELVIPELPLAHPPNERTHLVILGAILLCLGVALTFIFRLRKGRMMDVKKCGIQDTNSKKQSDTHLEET

In the case of “89Zr labeled DFO-conjugated isotype control antibody”, the results for the Percent IR (immunoreactivity) in test [1], in test [3] and in test [6] were 0.5%, 0.7% and 0.7%, respectively. Further, in test [2], the Immunoreactivity came out at 8.8%. In addition, the cell pellet activity in test [4] stood at 68; in [5], 29.6; in test [7], 65.4.

One may read the EC50 (read off the curve) as the midpoint of the concentration-response curve. Low readings indicate higher potency in that assay, high ones lower potency in that assay. For “fluorochrome directly conjugated anti-human PD-L1 antibody (eBioscience, clone MIH1)”, the EC50 (read off the curve) in test [8] came to 30 nM; in test [9], 20 nM; in test [10], 20 nM; in test [12] it was 30 nM. In addition, the antibody concentration at which median fluorescence intensity reached the plateau in test [11] amounted to 150 nM. The Mean fluorescence intensity in test [13] was 8480; in test [14] it was 12100; in test [15], 49600; in [16], 51400.
